Where a chain is given by its changes, count along the chain named. Numbers in names are those of the source.

Sequences and labels used below:
T1: alpha-2 macroglobulin (in human plasma) (human, UniProt P01023 24-1474)
T1 construct: Not purified: the endogenous protein of the plasma
T1 sequence (looked up): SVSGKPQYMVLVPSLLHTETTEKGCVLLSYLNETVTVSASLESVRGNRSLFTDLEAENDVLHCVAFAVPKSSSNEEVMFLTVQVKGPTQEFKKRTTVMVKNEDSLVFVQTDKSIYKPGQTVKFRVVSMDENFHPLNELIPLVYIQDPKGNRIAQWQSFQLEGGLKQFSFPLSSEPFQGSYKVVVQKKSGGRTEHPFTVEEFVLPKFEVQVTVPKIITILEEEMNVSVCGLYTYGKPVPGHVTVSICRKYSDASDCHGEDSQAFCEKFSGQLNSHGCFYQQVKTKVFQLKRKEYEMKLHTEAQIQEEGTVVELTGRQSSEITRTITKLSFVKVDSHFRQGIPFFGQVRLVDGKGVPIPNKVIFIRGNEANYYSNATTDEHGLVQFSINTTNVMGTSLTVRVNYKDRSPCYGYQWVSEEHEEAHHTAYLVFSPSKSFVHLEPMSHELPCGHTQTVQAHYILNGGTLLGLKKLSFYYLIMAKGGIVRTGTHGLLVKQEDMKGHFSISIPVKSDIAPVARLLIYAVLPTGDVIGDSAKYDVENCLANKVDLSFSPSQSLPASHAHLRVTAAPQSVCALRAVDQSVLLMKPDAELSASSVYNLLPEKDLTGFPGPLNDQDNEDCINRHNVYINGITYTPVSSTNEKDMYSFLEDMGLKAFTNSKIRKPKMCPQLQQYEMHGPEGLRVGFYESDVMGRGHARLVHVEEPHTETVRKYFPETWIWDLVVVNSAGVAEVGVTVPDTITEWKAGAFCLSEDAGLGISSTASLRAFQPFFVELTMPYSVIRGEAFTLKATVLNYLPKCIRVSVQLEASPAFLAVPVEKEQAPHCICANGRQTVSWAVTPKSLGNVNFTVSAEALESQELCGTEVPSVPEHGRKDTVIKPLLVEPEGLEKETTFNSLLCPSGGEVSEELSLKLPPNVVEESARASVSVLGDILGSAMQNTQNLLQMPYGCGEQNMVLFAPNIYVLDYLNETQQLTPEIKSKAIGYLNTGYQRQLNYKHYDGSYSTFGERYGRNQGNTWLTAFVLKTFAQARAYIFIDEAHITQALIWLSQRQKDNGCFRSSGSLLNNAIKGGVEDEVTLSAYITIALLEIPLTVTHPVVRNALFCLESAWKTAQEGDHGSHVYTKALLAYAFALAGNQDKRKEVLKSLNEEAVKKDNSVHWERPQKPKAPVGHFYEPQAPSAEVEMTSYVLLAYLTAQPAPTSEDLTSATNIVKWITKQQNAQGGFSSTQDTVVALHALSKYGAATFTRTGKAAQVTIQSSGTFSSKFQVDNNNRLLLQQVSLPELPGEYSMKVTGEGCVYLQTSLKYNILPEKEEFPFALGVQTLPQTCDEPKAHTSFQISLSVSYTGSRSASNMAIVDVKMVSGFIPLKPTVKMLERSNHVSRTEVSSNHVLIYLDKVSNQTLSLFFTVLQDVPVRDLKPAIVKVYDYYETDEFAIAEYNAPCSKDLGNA

T2: Complement C2 (human) (human, UniProt P06681 21-752)
T2 sequence: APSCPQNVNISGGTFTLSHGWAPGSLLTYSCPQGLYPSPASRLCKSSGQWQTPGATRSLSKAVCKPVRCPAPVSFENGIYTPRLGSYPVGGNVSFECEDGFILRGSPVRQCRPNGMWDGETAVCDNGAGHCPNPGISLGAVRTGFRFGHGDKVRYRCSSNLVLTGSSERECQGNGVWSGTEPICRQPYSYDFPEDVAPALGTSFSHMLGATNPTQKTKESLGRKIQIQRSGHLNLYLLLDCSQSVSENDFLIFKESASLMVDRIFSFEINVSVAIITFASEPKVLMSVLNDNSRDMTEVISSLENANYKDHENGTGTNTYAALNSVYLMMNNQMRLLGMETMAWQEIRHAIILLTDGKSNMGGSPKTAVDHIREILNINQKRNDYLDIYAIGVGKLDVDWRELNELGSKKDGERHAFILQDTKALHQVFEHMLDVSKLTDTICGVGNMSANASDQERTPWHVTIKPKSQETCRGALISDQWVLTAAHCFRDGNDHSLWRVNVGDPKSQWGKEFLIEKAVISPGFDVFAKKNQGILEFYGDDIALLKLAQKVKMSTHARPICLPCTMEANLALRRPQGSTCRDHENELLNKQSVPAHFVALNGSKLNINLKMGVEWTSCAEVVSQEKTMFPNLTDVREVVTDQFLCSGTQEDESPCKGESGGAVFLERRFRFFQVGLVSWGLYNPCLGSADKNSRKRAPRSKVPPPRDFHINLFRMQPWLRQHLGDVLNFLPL

B1: modified MT-SP1 CB155 (Y146D/K224F) protease domain (enzyme)
chain: VVGGTDADEGEWPWQVSLHALGQGHICGASLISPNWLVSAAHCYIDDRGFRYSDPTQWTAFLGLHDQSQRSAPGVQERRLKRIISHPFFNDFTFDYDIALLELEKPAEYSSMVRPICLPDASHVFPAGKAIWVTGWGHTQDGGTGALILQKGEIRVINQTTCENLLPQQITPRMMCVGFLSGGVDSCQGDSGGPLSSVEADGRIFQAGVVSWGDGCAQRNFPGVYTRLPLFRDWIKENTGV
B2: modified MT-SP1 CB483 (I41T/Y146D/G151L/Q175D/K224N) protease domain (enzyme)
chain: B1 chain with I26T, G145L, Q169D, F221N
B3: modified MT-SP1 CB489 (I41T/Y146E/G151L/Q175D/K224L) protease domain (enzyme)
chain: B1 chain with I26T, D141E, G145L, Q169D, F221L
B4: modified MT-SP1 CB478 (I41T/Y146D/Q175D/K224N) protease domain (enzyme)
chain: B1 chain with I26T, Q169D, F221N
B5: modified MT-SP1 CB481 (I41T/Y146D/G151L/Q175D/K224L) protease domain (enzyme)
chain: B1 chain with I26T, G145L, Q169D, F221L
B6: modified MT-SP1 CB421 (I41T/Y146D/Q175D/K224F) protease domain (enzyme)
chain: B1 chain with I26T, Q169D
B7: modified MT-SP1 CB482 (I41T/Y146D/G151L/Q175D/K224R) protease domain (enzyme)
chain: B1 chain with I26T, G145L, Q169D, F221R
B8: modified MT-SP1 CB477 (I41T/Y146D/Q175D/K224R) protease domain (enzyme)
chain: B1 chain with I26T, Q169D, F221R
B9: modified MT-SP1 CB476 (I41T/Y146D/Q175D/K224L) protease domain (enzyme)
chain: B1 chain with I26T, Q169D, F221L
B10: modified MT-SP1 CB480 (I41T/Y146D/G151L/Q175D/K224F) protease domain (enzyme)
chain: B1 chain with I26T, G145L, Q169D
B11: modified MT-SP1 CB488 (I41T/Y146E/G151L/Q175D/K224F) protease domain (enzyme)
chain: B1 chain with I26T, D141E, G145L, Q169D
B12: modified MT-SP1 CB490 (I41T/Y146E/G151L/Q175D/K224R) protease domain (enzyme)
chain: B1 chain with I26T, D141E, G145L, Q169D, F221R
B13: modified MT-SP1 CB486 (I41T/Y146E/Q175D/K224R) protease domain (enzyme)
chain: B1 chain with I26T, D141E, Q169D, F221R
B14: modified MT-SP1 CB485 (I41T/Y146E/Q175D/K224L) protease domain (enzyme)
chain: B1 chain with I26T, D141E, Q169D, F221L
B15: modified MT-SP1 CB487 (I41T/Y146E/G151L/Q175D/K224N) protease domain (enzyme)
chain: B1 chain with I26T, D141E, G145L, Q169D, F221N
B16: modified MT-SP1 CB422 (I41T/Y146E/Q175D/K224N) protease domain (enzyme)
chain: B1 chain with I26T, D141E, Q169D, F221N

The first test concerns the target T3, M84R ecotin (UniProt P23827 21-162).
T3 construct: Position 84 is probably counted on mature ecotin, not on the precursor entry; also called ecotin M84R
Description: active site titration of purified CB155 with M84R ecotin, residual Ac-RQAR-AMC activity. As for the experimental part:
The purified protein was assayed for specific activity, purity, and endotoxin levels. The specific activity or amount of active protease in each prep was determined by active site titration by incubation with an inhibitor that binds in the active site of the functional protease at varying concentrations followed by addition to a fluorogenic substrate for measurement of substrate proteolysis. The amount of active enzyme was calculated from a plot of the residual protease activity against the inhibitor concentration where the intercept corresponds to the concentration of active protease. […] Enzyme activity was monitored at 30° C. in the presence of 40 μM Ac-RQAR-AMC in assay buffer containing 50 mM Tris pH 8.0, 50 mM NaCl, and 0.01% Tween-20 (for trypsin activity, 10 mM CaCl2 was added) on a Gemini XPS spectrafluorimeter (Excitation: 380 nm; Emission: 450 nm; Cut-off: 435 mn). Purity of the protein preparation was assessed by resolution of the protein product on SDS-PAGE followed by staining with Coomassie Blue. […] The level of endotoxin in each prep was determined by Liumlus Amebocyte Lysate Chromo-LAL assay (Associated of Cape Cod) according to the manufacturer's protocol with the following modifications. […]
B1: the binding result is recorded as “binds”.

Another test has as its target T1, alpha-2 macroglobulin (in human plasma). Description: Ac-RQAR-AMC activity of protease after 5 min in human citrated plasma, with and without M84R ecotin. On the procedure:
In addition, the percent protease unbound by alpha-2 macroglobulin (a2M) also was determined. Inactivation of a protease by alpha-2 macroglobulin traps the protease in a complex where it is still able to turn over small fluorescent substrates, but unable to access large protein substrates. This property of alpha-2 macroglobulin complicates the assessment of a proteases activity in plasma. To determine the actual activity of the free, uncomplexed protease in plasma, a two step measurement is required. First, the sample's activity on fluorescent substrates is measured. […] The percent unbound by alpha-2 macroglobulin activity is the percentage of the plasma residual activity that is inhibited by the addition of the ecotin. Briefly, in a 0.2 mL PCR tube, 1 μL 10× protease was mixed with 9 μL human plasma in citrate (Innovative Research). A uninhibted control also was prepeared containing 1 μL 10× protease mixed with 9 μL PBST. The mixtures were incubated for 5 minutes at 37° C. The samples were diluted 250 fold in PBST and stored on ice. Two 50 μL aliquots for each sample were transferred to an opaque assay plate (Costar #3694) containing 2 μL PBST or 2 μL 520 nM M84R ecotin. The plates were incubated 10 minutes at room temperature. Five microliters 0.4 mM Ac-RQAR-AMC substrate was added and the fluorescence was measured over time with a SpectraMax M5 spectrafluorometer (Molecular Devices) set to read every 20 seconds for 30 minutes at 30° C. (Ex: 380 nm, EM: 450 nm, Cut-off: 435 nm). The percent unbound by alpha-2 macroglobulin was calculated with the following formula: (1-([(Protease in plasma/Protease in PBST)−(Protease in plasma+ecotin/Protease in PBST)]/(Protease in plasma/Protease in PBST)))*100.
As to B2, the “% Unbound by a2M” value was 73%.
Take B3: the “% Unbound by a2M” value is 58%.
The same measure, in the same setting: for B4 the value was 89%.
Still for that read-out and setting: as for B5, the figure is 72%; as for B6, 84%.
The same measure, in the same setting: for B7 the value was 10%; for B8, 67%; for B9, 89%.
B10: the “% Unbound by a2M” value came out at 88%.
On the same count and under the same terms, for B11 the value was 85%.
Same read-out and setting: for B12 the value was 0%; for B13, 44%.
Same read-out and setting: for B14 the value was 82%; for B15, 53%; for B16, 83%.

For the next test, the target named is T2, Complement C2 (human). The experiment in a line: cell-based or functional assay.
Consider B1, for which the “IC50 based on gel densitometry of C2 cleavage products (purified C2)” value was 2.2 nM; the “IC50 for hemolysis in C2 depleted serum supplemented with protease-treated C2” value was found to be 17 nM; the “IC50 of the proteases for cleavage of C2 (Western blot densitometry, 5% human plasma, 1 h 37 C)” value turned out to be 18.4 nM.

The values above are taken from patent US20070093443A1 (CATALYST BIOSCIENCES, published 2007).
